Data reported in patent publication US20060079445A1, “CaMKII/calcium channel binding-related compositions and methods” (priority 2004, published 2006).

How the values were obtained:
[1] = molecular target: T1, autophosphorylated α-CaMKII / α1C amino acids 1581-1690 (Rattus norvegicus, UniProt P11275); experiment: GST pull down of autophosphorylated α-CaMKII with α1C aa 1581-1690, peptide competition; assay type: binding; conditions: 40 μM peptide; 20 nM α-CaMKII
T1 construct: made in house; GST fusion proteins from bacterial lysates
Protocol: (B) Immunoblot with CBα2 after GST pull down of purified autophosphorylated α-CaMKII (20 nM), using α1C amino acids 1581-1690 fused to GST. Pull down assay performed in the presence of 40 μM of the indicated peptide or the peptide diluent DMSO. (C) Immunoblots with CBα2 or an anti-CaM antibody after a GST pull down assay, using α1C amino acids 1581-1690 (WT), a ^1644TVGKFY^1649→EEDAAA mutant (Mut6), or GST alone, of purified autophosphorylated CaMKII (left) or CaM (right). Top panels show a Ponceau stain of each fusion protein. […] Asterisk indicates p<0.001 for a one-way analysis of variance followed by a Dunnett's test to identify specific pair-wise differences between the means for Mut6 vs. wt and GST vs. wt, n=4-8. […] Top panels show a Ponceau stain of each fusion protein.
The binding reactions were accomplished in Tris binding buffer (50 mM Tris, 150 mM NaCl, 0.1% T-20 at pH 7.4 ml plus 0.1% BSA) containing 20 nM purified CaMKII. The total protein from the HEK293 cell lysates added to each binding reaction ranged from 9-22 μg, determined by normalizing for the amount of CaMKII activity (Singla et al., 2001). Pre-autophosphorylayion of CaMKII (purified and lysate) was accomplished at 4° C. for 5 min in Tris binding buffer plus 1 mM CaCl2, 5 μM CaM, 1 mM ATP, and 5 mM MgCl2 to restrict the sites of autophosphorylation to primarily Thr286 (Ikeda et al., 1991; Lai et al., 1987; Lou and Schulman, 1989). Final concentration of these components in the binding reaction (1:40) was 0.025 mM CaCl2, 0.125 μM CaM, 0.025 mM ATP, and 0.125 MM MgCl2. The binding reaction was rocked for 1 h at 4° C. and the beads extensively washed in Tris binding buffer (2-3× for 5 mins each). Immunoblots were performed multiple times with identical results and Ponceau staining was always performed to ensure equal loading and transfer. CaMKII binding was quantified using densiotometric measurement of band intensity using KODAK 1D Image Analysis Software (Eastman Kodak, Company). […]

[2] = molecular target: T2, cloned L-type channels (subunit α1C77) (Homo sapiens, UniProt Q13936); experiment: Check for use-dependence of diltiazem block of cloned L-type channels; assay type: cell-based; conditions: 100 μM; same solutions and voltage protocol as granule cells
T2 construct: expressed in transfected cells; host or cells: HEK293 stably transfected with α2-δ and β1C (HEKα2β1), transiently transfected with α1C77 and GFP
Protocol: Dissociated cerebellar granule cells were prepared from 7-day old C57/BL6 mouse cerebella and grown in culture by a published protocol (Piedras-Renteria and Tsien, 1998; Randall and Tsien, 1995). The cerebellar granule cells were maintained in Minimal Essential Medium (Invitrogen) supplemented with 10% fetal bovine serum, glucose 5 mg/liter, transferrin 100 mg/liter, insulin 25 mg/liter, glutamine 300 mg/liter, and potassium chloride 20 mM. Cells were plated on Matrigel (Collaborative Biomedical Product) treated glass coverslips in 24-well chambers and maintained in a humidified, 37° C. incubator with […]/5% CO2. Cells were maintained for 6 to 9 days in culture prior to electrophysiological experiments. HEK293 cells stably transfected with the α2-δ and β1C subunits (HEKα2β1) were grown in Dulbecco's Modified Eagle's Medium containing 10% v/v calf serum, penicillin (100 units/ml), streptomycin (100 μg/ml), and kept under positive selection with Geneticin (400 μg/ml) while being maintained as described above. cDNAs encoding the α1C77 subunit (Zühlke and Reuter, 1998) and the green fluorescent protein were transiently transfected into HEKα2β1 cells by using the Lipofectamine2000 reagent (Invitrogen). Electrophysiological experiments were performed >24 hrs after transfection.

[3] = system: L-type Ca^2+ currents in cerebellar granule cells; experiment: Patch-clamp of Ca2+-dependent facilitation of L-type currents in cerebellar granule cells; assay type: cell-based, C57/BL6 mouse; conditions: 2 μM peptide in patch pipette; Ca^2+ charge carrier; train of five pulses; without peptide facilitation ~50%
Protocol: Dissociated cerebellar granule cells were prepared from 7-day old C57/BL6 mouse cerebella and grown in culture by a published protocol (Piedras-Renteria and Tsien, 1998; Randall and Tsien, 1995). The cerebellar granule cells were maintained in Minimal Essential Medium (Invitrogen) supplemented with 10% fetal bovine serum, glucose 5 mg/liter, transferrin 100 mg/liter, insulin 25 mg/liter, glutamine 300 mg/liter, and potassium chloride 20 mM. Cells were plated on Matrigel (Collaborative Biomedical Product) treated glass coverslips in 24-well chambers and maintained in a humidified, 37° C. incubator with […]/5% CO2. Cells were maintained for 6 to 9 days in culture prior to electrophysiological experiments. […]
Cerebellar granule cells, identified on the basis of morphology and size, comprised >90% of the cells in the primary culture. […] Voltage-gated Ca^2+ and Ba^2+ currents were recorded from cells depolarized to 0 mV with five 20 ms pulses (50 ms interpulse interval) from a −90 mV holding potential. […]

T2 sequence (Q13936 1-2138 isoform Q13936-20): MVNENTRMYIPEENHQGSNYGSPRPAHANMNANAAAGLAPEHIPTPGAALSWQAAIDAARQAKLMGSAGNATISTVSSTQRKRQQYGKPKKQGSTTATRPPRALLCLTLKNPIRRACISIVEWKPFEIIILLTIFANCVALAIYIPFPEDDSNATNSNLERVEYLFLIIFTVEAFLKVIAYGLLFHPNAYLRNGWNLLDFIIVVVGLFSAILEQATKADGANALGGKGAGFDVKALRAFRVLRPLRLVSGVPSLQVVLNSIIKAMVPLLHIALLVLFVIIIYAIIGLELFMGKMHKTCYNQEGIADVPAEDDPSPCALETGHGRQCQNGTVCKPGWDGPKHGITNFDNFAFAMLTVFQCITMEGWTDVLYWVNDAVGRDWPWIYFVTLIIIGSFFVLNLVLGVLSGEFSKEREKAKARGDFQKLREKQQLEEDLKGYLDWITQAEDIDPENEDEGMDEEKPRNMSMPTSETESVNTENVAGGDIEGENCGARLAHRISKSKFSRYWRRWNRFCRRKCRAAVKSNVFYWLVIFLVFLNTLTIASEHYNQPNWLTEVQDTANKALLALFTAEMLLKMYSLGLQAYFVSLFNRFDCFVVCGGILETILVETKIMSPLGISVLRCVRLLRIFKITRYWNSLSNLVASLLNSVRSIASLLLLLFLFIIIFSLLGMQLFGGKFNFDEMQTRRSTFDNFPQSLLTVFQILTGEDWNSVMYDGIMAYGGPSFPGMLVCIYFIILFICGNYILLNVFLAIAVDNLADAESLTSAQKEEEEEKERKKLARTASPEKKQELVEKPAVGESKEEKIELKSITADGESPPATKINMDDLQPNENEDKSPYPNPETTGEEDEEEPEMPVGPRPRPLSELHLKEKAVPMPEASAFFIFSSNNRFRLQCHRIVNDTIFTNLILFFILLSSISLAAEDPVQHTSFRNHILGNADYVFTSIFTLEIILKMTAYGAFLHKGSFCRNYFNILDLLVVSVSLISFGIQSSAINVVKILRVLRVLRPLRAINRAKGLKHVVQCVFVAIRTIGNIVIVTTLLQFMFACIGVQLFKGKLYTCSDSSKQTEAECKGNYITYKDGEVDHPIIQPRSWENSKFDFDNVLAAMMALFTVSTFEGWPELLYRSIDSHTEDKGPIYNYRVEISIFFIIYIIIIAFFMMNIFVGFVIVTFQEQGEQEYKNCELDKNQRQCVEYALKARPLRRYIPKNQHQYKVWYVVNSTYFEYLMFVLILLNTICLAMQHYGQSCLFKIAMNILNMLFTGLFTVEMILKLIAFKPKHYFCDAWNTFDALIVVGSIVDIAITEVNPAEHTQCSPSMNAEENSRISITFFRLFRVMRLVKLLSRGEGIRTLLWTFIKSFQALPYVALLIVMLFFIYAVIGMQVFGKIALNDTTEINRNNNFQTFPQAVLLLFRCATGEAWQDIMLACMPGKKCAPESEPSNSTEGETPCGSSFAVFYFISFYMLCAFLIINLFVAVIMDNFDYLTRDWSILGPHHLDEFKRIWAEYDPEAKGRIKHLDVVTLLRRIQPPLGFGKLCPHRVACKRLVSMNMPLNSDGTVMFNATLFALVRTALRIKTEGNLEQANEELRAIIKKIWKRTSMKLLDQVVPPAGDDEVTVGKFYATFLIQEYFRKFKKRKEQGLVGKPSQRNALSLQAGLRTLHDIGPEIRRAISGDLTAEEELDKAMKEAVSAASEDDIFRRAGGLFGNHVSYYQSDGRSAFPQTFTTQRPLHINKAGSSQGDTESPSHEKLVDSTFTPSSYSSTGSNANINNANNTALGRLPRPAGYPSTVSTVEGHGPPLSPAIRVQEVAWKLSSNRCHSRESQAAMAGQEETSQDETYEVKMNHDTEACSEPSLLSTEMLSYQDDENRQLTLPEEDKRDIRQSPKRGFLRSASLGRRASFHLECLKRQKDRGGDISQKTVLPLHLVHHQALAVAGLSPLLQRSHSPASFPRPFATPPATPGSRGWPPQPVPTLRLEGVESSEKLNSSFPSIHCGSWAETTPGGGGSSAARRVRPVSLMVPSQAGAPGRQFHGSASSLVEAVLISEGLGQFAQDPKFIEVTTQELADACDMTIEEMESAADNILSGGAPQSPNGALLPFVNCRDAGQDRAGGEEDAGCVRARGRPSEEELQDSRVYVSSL
T2 sequence (Q02641 whole entry partner): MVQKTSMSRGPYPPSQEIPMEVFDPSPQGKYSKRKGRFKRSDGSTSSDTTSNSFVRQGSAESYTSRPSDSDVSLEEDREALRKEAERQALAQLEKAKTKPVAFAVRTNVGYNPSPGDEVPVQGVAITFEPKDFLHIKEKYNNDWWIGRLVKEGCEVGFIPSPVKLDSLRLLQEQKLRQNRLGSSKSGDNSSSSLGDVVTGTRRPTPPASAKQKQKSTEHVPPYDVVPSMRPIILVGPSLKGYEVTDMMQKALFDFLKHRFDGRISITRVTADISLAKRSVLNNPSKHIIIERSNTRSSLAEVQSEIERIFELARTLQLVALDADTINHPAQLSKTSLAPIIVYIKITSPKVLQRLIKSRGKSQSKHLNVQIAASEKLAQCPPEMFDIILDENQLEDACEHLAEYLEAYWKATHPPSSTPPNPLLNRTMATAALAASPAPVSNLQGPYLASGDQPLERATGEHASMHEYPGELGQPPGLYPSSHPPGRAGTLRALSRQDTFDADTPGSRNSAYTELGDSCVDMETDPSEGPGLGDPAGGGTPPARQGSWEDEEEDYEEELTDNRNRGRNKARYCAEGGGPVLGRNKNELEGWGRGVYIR
T2 sequence (P54289 25-946 partner limits assumed): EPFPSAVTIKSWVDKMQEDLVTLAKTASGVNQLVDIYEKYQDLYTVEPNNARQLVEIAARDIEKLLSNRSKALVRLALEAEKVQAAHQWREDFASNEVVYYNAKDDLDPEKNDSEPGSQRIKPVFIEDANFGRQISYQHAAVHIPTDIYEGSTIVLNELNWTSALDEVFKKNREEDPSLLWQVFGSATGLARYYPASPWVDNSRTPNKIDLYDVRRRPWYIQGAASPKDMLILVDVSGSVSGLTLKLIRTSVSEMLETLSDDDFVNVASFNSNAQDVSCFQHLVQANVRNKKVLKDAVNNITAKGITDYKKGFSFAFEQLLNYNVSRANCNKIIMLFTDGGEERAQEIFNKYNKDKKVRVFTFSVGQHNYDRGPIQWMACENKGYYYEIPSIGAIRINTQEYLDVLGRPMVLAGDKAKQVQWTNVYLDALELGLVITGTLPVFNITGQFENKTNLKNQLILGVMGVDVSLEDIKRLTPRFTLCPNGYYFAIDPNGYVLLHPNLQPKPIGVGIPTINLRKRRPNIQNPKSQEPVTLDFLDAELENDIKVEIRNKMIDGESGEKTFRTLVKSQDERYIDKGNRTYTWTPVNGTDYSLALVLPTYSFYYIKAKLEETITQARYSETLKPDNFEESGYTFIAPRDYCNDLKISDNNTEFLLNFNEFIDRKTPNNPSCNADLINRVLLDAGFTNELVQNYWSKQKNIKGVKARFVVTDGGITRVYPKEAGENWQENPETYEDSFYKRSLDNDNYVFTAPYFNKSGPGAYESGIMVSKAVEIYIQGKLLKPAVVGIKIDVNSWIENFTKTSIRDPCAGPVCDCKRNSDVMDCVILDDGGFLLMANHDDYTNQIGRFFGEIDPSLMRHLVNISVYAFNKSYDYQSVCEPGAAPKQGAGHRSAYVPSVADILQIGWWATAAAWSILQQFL
T2 sequence (P54289 947-1103 partner limits assumed): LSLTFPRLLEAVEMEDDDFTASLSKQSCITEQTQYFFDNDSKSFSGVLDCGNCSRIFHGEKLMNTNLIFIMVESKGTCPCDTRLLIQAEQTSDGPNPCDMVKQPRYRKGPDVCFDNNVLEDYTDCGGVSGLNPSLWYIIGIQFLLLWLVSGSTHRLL

Compound | interaction of autophosphorylated CaMKII with the 1581-1690 fusion protein [1] | other results
1589-1610: ~22 aa peptide of α1C residues 1589-1610, site important for tethering of apoCaM (KRLVSMNMPLNSDGTVMFNATL; UniProt Q13936 1589-1610, looked up, fragment) | not inhibited | 
1615-1636: ~22 aa peptide of α1C residues 1615-1636, site important for tethering of apoCaM (RTALRIKTEGNLEQANEELRAI; UniProt Q13936 1615-1636, looked up, fragment) | not inhibited | 
1639-1660: ~22 aa peptide generated from α1C residues 1639-1660, contains TVGKFY (KIWKRTSMKLLDQVVPPAGDDE; UniProt Q13936 1639-1660, looked up, fragment) | dramatically reduced | 
COc1ccc([C@@H]2Sc3ccccc3N(CCN(C)C)C(=O)[C@@H]2OC(C)=O)cc1 [diltiazem] |  | use-dependence of block of calcium currents [2]: none were found
KKALRRQEAVDAL [autocamtide-2-related inhibitory peptide] |  | decrease in peak L-type current over the course of the depolarizing pulse train [3]: ~25%
